# Laboratory results as given in article PMC3376167 (The Journal of Physical Chemistry. B, 2012).
# Target: the molecule itself
# Test: NMR 15N R2 relaxation
protein,measurement,value
"HIF-1α PAS-B domain single mutant (R245E), construct 947 (domain or fragment) not shown",binding result,binds
